Patent US20030119023
pKd: −log10 of the molar value.

Key:
Assay in all cases: EMSA
[1] = biological target: ZIF-flex-GAC (linker TG(GSG)5ERP) (artificial) (UniProt P08046); settings: all sites approximately 50 pM
[2] = biological target: ZIF-F4-GAC (TFIIIA finger 4 linker) (artificial) (UniProt P08046); settings: apparent Kd
[3] = test system: ZIF-ZnF-GAC (serine-finger linker) (artificial); settings: apparent Kd
[4] = biological target: ZIF-F4mut-GAC (ZIF-mutF4-GAC; TFIIIA finger 4 flanked by GERP linkers) (artificial) (UniProt P08046); settings: apparent Kd
[5] = biological target: ZIF-mutZnF-GAC (serine finger flanked by NIKICV and TQQLP) (artificial) (UniProt P08046)
3x2F ZGS (artificial) = settings: apparent Kd; half-site; hard to quantify
Sequence of 3x2F ZGS (artificial) (chain, as listed by the source): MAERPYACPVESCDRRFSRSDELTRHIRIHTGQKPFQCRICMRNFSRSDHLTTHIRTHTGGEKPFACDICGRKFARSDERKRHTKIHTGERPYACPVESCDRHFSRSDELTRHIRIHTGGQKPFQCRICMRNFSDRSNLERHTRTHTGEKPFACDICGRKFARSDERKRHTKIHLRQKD

[6] = test system: 2x3F ZIF-GAC (artificial); settings: apparent Kd; half-site
[7] = test system: TF(1-4)-ZIF (TFIIIA F1-4 fused to Zif268) (artificial); settings: apparent Kd; half-site
[8] = biological target: TF(1-3)-flex-ZIF (linker TG(GSG)5ERP) (artificial) (UniProt P03001+P08046); settings: apparent Kd

| Sequence | pKd [1] | pKd [2] | pKd [3] | other results |
| --- | --- | --- | --- | --- |
| GCGGACGCGGCGTGGGCG (double strand) [bsC (123456, ZM)] | 10.30 | 10.96 |  |  |
| GCGGACGCGNGCGTGGGCG (double strand) [Z1M] | 10.30 | 11.22 | 11.40 |  |
| GCGGACGCGNNGCGTGGGCG (double strand) [Z2M] | 10.30 | 11.15 | 11.22 |  |
| GCGGACGCGNNNGCGTGGGCG (double strand) [Z3M] | 10.30 | 11.30 | 11.40 |  |
| GCGGACGCGNNNNGCGTGGGCG (double strand) [Z4M] | 10.30 | 10.89 | 11.52 |  |
| GCGGACGCGNNNNNGCGTGGGCG (double strand) [Z5M] | 10.30 | 10.80 | 11.10 | pKd [4]: 10.89; pKd [5]: 10.74 |
| GCGGACGCGNNNNNNGCGTGGGCG (double strand) [Z6M] | 10.30 | 10.77 | 11.15 | pKd [4]: 10.89; pKd [5]: 10.96 |
| GCGGACGCGNNNNNNNGCGTGGGCG (double strand) [Z7M] | 10.30 | 11.30 | 11.52 |  |
| GCGGACGCGNNNNNNNNGCGTGGGCG (double strand) [Z8M] | 10.30 | 11.30 | 11.22 |  |
| GCGGACGCGNNNNNNNNNGCGTGGGCG (double strand) [Z9M] | 10.30 | 11.30 | 11.40 |  |
| GCGGACGCGNNNNNNNNNNGCGTGGGCG (double strand) [Z10M] | 10.30 | 11.40 | 11.52 |  |
| GCGTGGGCG (double strand) [bsA (ZIF site)] |  |  |  | pKd ([3]; half-site): 8.70; pKd (3x2F ZGS (artificial)): 6.96; pKd [6]: 8.66; pKd [7]: 8.70; pKd ([2]; half-site): 8.66; pKd ([8]; half-site): 8.74 |
| GCGTGGGCGAGTACCTGGATGGGAGAC (double strand) [TF7Z (bsC1)] |  |  |  | pKd [8]: 10.24 |
| GCGTGGGCGGTACCTGGATGGGAGAC (double strand) [TF6Z (bsB1)] |  |  |  | pKd [8]: 10.17 |
| GCGTGGGCGTACCTGGATGGGAGAC (double strand) [TF5Z (bsA1)] |  |  |  | pKd [8]: 10.20 |
| GCGTGGGCGTAGTACCTGGATGGGAGAC (double strand) [TF8Z (bsD1)] |  |  |  | pKd [8]: 10.21 |
| GCGTGGGCGTTAGTACCTGGATGGGAGAC (double strand) [TF9Z (bsE1)] |  |  |  | pKd [8]: 10.24 |
